28 sequences from the domain aggregation screens of Martell et al. (2025) can be followed below.

The data set in a line: soluble fraction after stress (log2 fold change); higher = more stays soluble; pooled small domains, quantitative proteomics. Particulars: stress: 50 degC. In outline:
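Custom libraries of small protein domains were pooled and measured in a high-throughput format, with quantitative proteomics as the read-out. Each library was stressed at 50°C. The value is the log2 fold change in the amount of each protein that stays soluble after stress, used as a measure of aggregation propensity; higher values mean more of the protein stays soluble.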
In the case of “HMAITLEQFLSVNPHIRNNLYGNAVELVKDKDFSVLSDKLKASSKWANEPSLYKILSHYDEIIS”, the “soluble fraction (log2)” value was 0.063.

As for “HMQELGVISEGKYNIELNMVSWNDREPKYDIRSWAPDHSRMGKGISLTEEEMERLVELWNTRNE”, the “soluble fraction (log2)” value is -0.248.

For “HMLINLGPRIRKERRSKGISQSDFSKNLGISASYLNLLENGRRTLTVPLLIKIGNELNLSLKDL”, the “soluble fraction (log2)” value is -0.0339.

For “HMQSSTAISFNQFQKSWLSNNIKSFQLGEDKMTVRGSLKNGTQYETIVPSERLFQFIGQHPKDGQVQEMY”, the “soluble fraction (log2)” value stood at 0.042.

Turning to “HMQSLDGPSRAAIVLMAIGPDVAGELIKSFSPAEAQKVSSLLATVRSLDREVMIEVLDSFKNITEH”, the “soluble fraction (log2)” value was -0.323.

As for “HMKKTIIVHVVGEVNTPGIVELNEGARIIDAINGAGGKTEEADMSKINLAYVIEDGSQIYVPSIYE”, the “soluble fraction (log2)” value was -0.227.

“HMNSKMTYSDLIGNIEQGNVSSVELASDGKSATVTLTDNSQKQVNIPSLDSFVTYVQDHIKAGTLSVEE”: the “soluble fraction (log2)” value stood at 0.000127.

As for “HMITEDQVIARIGLLSPAEKSLLKDKLERFRRLTLSEQQHLREFHSALDNHDKRTDLLNVLRKYNDWVNQL”, the “soluble fraction (log2)” value was -1.67.

In the case of “HMARGLRPVPSVFGLDVRQATRTLYAAGFQVSIARGSDVRTRPAAGTLLRVGSTVQLEMPRMESA”, the “soluble fraction (log2)” value was -1.54.

In the case of “HMSDAKKRAFSKDEILYSLKNRPFTSFDIESLFDDESKKTFIGLLDKGEISEKKVAGTIFYYLR”, the “soluble fraction (log2)” value is -0.0659.

As to “HMAVETYRVKKSDTMQTIADRFGLSVEELLEYNQAYKTRELRARDILIIPSRKERKKLQQQKAQAAAQVVQ”, the “soluble fraction (log2)” value is -0.253.

Regarding “HMDEIELLLQDAIQKLPEKQRMVFTLRYYDNLPYEEISKILDMSVSTLKTNYHYAKSKIEQYILDHS”, the “soluble fraction (log2)” value is -0.607.

For “HMELDREALSDGLRRLSQLLAEDDIESRTLFRELAPGLKEQLGDDAVEKLAGHISRYEFEQAGALLATSG”, the “soluble fraction (log2)” value is -0.0341.

On to “HMAPADLSPEERVVLDALALEPVHVDALAAKLGRRSEELLTSLTLMEMRGLAVAHAGSRYSRATMT”, for which the “soluble fraction (log2)” value was 0.0694.

As to “HMSEFGENLKKLRTARDLTQQELGAKVGLSKAVVSKYENGLGYPTFDVLIRIAAYFGVTTDYLLGV”, the “soluble fraction (log2)” value is -0.442.

With “HMLELLSMEDIQRTRVGDLIATVRQVDRQHALVLDRDPETGKPAVRGIFSLSQISLRLGLNI”, the “soluble fraction (log2)” value was -0.557.

On to “HMVEPIKAPMPGMVLKILVEPGQQIEKGQGVLILEAMKMENVLKSSAAATVKSIKVSEKSAVEKGAILVEL”, for which the “soluble fraction (log2)” value is -0.109.

As to “HMSHGFFTLQSDDLNLLRTVLEGHSSIGDIKIEGIQLVAYLKEPLNGAELNKILFEKGINLSYLVHRK”, the “soluble fraction (log2)” value was -2.15.

As for “HMRLMLITPTEFDEAAEIADNLKDRRAVLMNVEKTDNETARRLIDFLSGVVYALGGKIMRISAQAYVLT”, the “soluble fraction (log2)” value is -0.236.

As to “HMKQISQNIHRLRKEKGMSQEQLAQALHVTRQTVSAWERGIAQPSLDVLGQIAQLLGVEPERLLYGE”, the “soluble fraction (log2)” value was 0.153.

As to “HMKMSVKNEIISLLEKNRDTSISGQVIADSLNVTRAAVWKAIKVLKEEGYNIDGTPNKGYILLGNN”, the “soluble fraction (log2)” value was -0.368.

On to “HMRRGPLTPDDFVLDMRVVHPRYGVGRIVALSGSGESRKATVDFGGSIGRMKFVLSQSPLKP”, for which the “soluble fraction (log2)” value is -0.414.

In the case of “HMADLSAYAGKEGMTDSVLRPSGKVDIEGHILDAVSRGDFIEKGKRVIVIKAEGSYLVVKKRMP”, the “soluble fraction (log2)” value was -0.175.

Turning to “HMHSRTWTSADGVKTFEGELQSYDAASGKVSVILPNHKRITFKQEKLSADDIAWLEKNGNRP”, the “soluble fraction (log2)” value stood at 0.102.

For the sequence “HMTVSIDSLFDKFEDLQEQGLGDKTEEGQELRGLIRAFIEQEHLSVRITRSTSNQELLDMIEEAMQ”, the “soluble fraction (log2)” value is -1.45.

Take “HMNSNIIKTINDELSIRKGKYGPYIMYKTKKMKRPKFKSIGDNTPDEFLADKGSISEIILWIN”: the “soluble fraction (log2)” value is -0.444.

In the case of “HMYSDQRMEIFLEHLPDFIEQLSHKHVTRQMVWEDYRMIYPDGYGKSQFFFHLAQNLKAQKP”, the “soluble fraction (log2)” value is -3.3.

On to “HMKMQIGEIIRKYRKSNHMTQEEMAERLGVSAPAVNKWENGNSMPDIMLLAPITRLLGISLDELLSFE”, for which the “soluble fraction (log2)” value was -1.24.
